Reference: PMC2901902 (Nature, 2010)
One block for each binder: values may come before it. Where no end group is shown, it is not given here.

What was measured:
[1] = molecular target: DPF3b PHD12 with Ala mutation of Glu315 (human, UniProt Q92784-1 261-372, Ala mutation of Glu315); assay: ITC
[2] = molecular target: T1, DPF3b PHD12 with Ala mutation of Asp335 (human, UniProt Q92784-1 261-372, Ala mutation of Asp335); assay: ITC
T1 sequence (looked up): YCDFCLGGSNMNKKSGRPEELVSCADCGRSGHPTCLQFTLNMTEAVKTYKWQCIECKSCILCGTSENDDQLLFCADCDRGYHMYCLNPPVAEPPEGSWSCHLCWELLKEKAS

[3] = molecular target: DPF3b PHD12 F264A (human, UniProt Q92784-1 261-372, F264A); assay: ITC
[4] = molecular target: DPF3b PHD12 D263A (human, UniProt Q92784-1 261-372, D263A); assay: ITC
[5] = molecular target: human DPF3b tandem PHD finger (residues 261–372) (human, UniProt Q92784-1 261-372); assay: NMR solution structure

binding result [1]: binds
binding result [2]: binds
Binder: ARTKQTARKSTGGK(Ac)APRK (peptide, UniProt P68431 2-19, looked up) [histone H3 peptide acetylated at lysine 14 (residues 1–18)]

binding result [3]: binds
binding result [4]: binds
Binder: ARTKQTARKSTGGKAPRK (peptide, UniProt P68431 2-19, looked up) [unmodified histone H3 peptide (residues 1–18)]

binding result [5]: binds
Binder: GLGKGGAK(Ac)RHRKVLR (peptide, UniProt P62805 10-24, looked up) [histone H4K16ac peptide (residues 9–23)]
